The values below come from article PMC11182016, “Molecular basis of human poly(A) polymerase recruitment by mPSF” (RNA, 2024).

Common to all, as to conditions: both partners purified
Test [1] concerns the target T1, CPSF160–WDR33 (CPSF160 coexpressed with TwinStrep3C-WDR33 residues 1–413-FLAG) (human, UniProt Q10570 1-1443; Q9C0J8 1-413).
T1 construct: human CPSF160 (mPSF subunit); human WDR33 (mPSF subunit), residues 1-413; A 3C site follows the TwinStrep tag; no cleavage step is described; also called FLAG-tagged WDR33; source: Sf9, baculovirus coexpression, purified (StrepTactin XT, MonoQ, Superdex 200); not shown: FLAG, C-terminal, kept
Nature of the test: pull-down; FLAG pull-down on α-FLAG M2 Protein G Dynabeads; FLAG-tagged WDR33 (CPSF160–WDR33) 1.5 µM as bait, PAPOAC 15 µM; 20 mM HEPES-NaOH pH 7.5, 150 mM NaCl, 0.01% NP-40 substitute, no MgCl2, 4°C; Coomassie-stained SDS-PAGE.

The target in test [2] is T2, PAPOA structured core (His8-3C-PAPOA residues 1–513-FLAG), wild type (human, UniProt P51003 1-513).
T2 construct: A 3C site lies between His8 and PAPOA; no cleavage step is described in the purification; also called PAPOA core; PAPOA_(1–513); source: E. coli BL21 STAR (DE3) pRARE, purified (Talon, HiTrap Heparin, Superdex 200); not shown: FLAG, C-terminal, kept
The test can be described thus: pull-down; FLAG pull-down on α-FLAG M2 Protein G Dynabeads; FLAG-tagged PAPOA core 2.5 µM as bait, PAPOAC 100 µM (40× excess); 20 mM HEPES-NaOH pH 7.5, 50 mM NaCl, 5 mM MgCl2, 0.01% NP-40 substitute, 4°C; Coomassie-stained SDS-PAGE.

In test [3] the target is T2, PAPOA structured core (His8-3C-PAPOA …). Nature of the test: pull-down; FLAG pull-down on α-FLAG M2 Protein G Dynabeads; FLAG-tagged PAPOA core 2.5 µM as bait, FIP1 25 µM (10× excess); 20 mM HEPES-NaOH pH 7.5, 150 mM NaCl, 5 mM MgCl2, 0.01% NP-40 substitute, 4°C; Coomassie-stained SDS-PAGE.

T2 sequence (P51003 1-513): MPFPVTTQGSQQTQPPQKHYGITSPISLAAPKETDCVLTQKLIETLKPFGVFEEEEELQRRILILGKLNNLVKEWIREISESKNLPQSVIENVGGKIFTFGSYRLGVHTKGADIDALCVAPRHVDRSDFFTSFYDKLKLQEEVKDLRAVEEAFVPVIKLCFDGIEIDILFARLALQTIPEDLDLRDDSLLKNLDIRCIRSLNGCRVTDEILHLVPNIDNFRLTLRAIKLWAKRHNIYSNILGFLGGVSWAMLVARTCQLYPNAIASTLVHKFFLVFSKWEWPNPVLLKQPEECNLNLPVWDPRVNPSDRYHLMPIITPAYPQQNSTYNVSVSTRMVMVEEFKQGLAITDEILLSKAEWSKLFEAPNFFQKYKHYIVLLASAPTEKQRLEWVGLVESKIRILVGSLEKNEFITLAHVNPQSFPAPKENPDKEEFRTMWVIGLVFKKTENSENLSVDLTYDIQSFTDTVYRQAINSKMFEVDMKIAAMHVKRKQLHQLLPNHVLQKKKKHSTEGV
T1 sequence (Q10570 whole entry, chain 1 of 2, the tested form may be a part): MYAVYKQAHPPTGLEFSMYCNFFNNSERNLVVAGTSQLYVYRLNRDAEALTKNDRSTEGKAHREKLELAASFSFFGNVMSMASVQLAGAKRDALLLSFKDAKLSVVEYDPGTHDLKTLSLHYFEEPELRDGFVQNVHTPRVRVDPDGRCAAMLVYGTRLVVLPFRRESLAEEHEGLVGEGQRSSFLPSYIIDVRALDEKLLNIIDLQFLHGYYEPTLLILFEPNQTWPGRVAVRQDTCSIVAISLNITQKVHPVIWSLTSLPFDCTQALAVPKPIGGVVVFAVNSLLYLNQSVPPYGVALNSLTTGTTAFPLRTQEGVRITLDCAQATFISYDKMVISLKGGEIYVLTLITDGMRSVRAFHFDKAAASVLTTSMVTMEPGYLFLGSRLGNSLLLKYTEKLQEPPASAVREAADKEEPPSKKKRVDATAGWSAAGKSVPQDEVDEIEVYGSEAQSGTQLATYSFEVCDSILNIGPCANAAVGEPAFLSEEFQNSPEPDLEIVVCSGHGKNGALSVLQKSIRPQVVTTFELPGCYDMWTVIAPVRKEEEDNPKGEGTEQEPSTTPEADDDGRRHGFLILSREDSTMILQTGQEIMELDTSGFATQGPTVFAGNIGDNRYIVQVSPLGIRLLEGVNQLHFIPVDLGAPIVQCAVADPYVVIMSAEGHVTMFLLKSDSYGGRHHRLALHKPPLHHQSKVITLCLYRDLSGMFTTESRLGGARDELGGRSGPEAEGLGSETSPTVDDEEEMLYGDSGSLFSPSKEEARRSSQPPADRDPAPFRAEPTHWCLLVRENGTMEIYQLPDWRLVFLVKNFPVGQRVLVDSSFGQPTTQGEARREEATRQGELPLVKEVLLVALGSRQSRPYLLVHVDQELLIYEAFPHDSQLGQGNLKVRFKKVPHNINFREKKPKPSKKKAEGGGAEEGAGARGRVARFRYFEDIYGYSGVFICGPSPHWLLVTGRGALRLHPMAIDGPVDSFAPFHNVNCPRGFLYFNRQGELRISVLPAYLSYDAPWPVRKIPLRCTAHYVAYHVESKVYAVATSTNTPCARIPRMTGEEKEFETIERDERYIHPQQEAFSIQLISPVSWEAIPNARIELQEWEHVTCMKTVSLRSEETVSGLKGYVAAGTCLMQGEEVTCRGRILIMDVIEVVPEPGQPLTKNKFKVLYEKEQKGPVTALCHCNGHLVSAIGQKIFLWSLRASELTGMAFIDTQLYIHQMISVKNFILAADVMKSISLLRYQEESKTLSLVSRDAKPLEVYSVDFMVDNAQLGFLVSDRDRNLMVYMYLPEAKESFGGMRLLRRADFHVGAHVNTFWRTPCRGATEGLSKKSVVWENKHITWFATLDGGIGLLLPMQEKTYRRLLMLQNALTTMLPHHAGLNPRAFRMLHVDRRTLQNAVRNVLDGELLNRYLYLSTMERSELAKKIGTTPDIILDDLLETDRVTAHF
T1 sequence (Q9C0J8 1-413, chain 2 of 2): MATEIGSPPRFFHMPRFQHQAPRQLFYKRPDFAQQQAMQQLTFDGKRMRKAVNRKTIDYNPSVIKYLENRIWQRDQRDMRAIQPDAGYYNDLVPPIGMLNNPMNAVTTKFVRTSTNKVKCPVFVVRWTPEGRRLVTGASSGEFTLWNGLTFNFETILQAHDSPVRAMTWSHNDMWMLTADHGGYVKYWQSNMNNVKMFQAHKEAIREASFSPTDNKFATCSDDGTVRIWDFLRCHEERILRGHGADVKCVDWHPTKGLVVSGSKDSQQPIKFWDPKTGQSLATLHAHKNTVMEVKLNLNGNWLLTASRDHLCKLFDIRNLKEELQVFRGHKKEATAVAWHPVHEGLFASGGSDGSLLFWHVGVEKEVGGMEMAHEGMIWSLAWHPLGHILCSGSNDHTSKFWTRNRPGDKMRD

B1: minimal PAPOAC construct (His6-MBP-3C-PAPOA residues 720–745), wild type (peptide)
chain: DLSDIPALPANPIPVIKNSIKLRLNR
notes: human poly(A) polymerase alpha (PAPOA), C-terminal motif, residues 720-745; A 3C site follows MBP; no cleavage step is described in the purification; also called PAPOA C terminus; PAPOAC peptide; source: E. coli BL21 STAR (DE3) pRARE, purified (Amylose resin, Superdex 200)
Take B1: the binding result in test [1] and in test [2] was “binds” each time.

B2: minimal FIP1 construct (His6-MBP-3C-FIP1 residues 80–113), wild type (peptide, UniProt Q6UN15 80-113, looked up)
chain: ETEDDSDSDSDDDEDDVHVTIGDIKTGAPQYGSY
notes: A 3C site follows MBP; no cleavage step is described in the purification; also called minimal FIP1 peptide; source: E. coli BL21 STAR (DE3) pRARE, purified (Amylose resin, Superdex 200)
On to B2, for which the binding result in test [3] is “binds”.
